Experimental data taken from US6140058, “Activation of p53 protein” (Newburn Ellis).

Columns and labels:
p53 wild type [1] = biological target: T1, p53 wild type (Homo sapiens, UniProt P04637 P04637:1-393); experiment: EMSA; casein kinase II-activated, 1 mM ATP; conditions: tags: bacterial expression, Fraction III; chain copies: 4 inferred; label: 32P; Hind III compatible overhangs
Experimental: (§1) In the first stage, wild type p53 (60 ng) or mutant forms of p53 (180 ng) was incubated with ATP and the indicated activating protein at 30° C. for 30 minutes. In the second stage, the consensus site oligonucleotide was added to the reactions to assay for sequence-specific DNA binding. (A) PAb421; lane 1, 3 and 5 (p53, p53 His 273, and p53 Lys285, respectively), lanes 2, 4 and 6 (PAb421 and p53, p53 His273, and p53 Lys285, respectively). (B) DnaK; lanes 1, 5, and 9 (p53, p53 His273, and p53 Lys285, respectively), lanes 2, 6 and 10 (DO-1 and p53, p53 His273, and p53 Lys285, respectively), lanes 3, 7 and 11 (DnaK and p53, p53 His273, and p53 Lys285, respectively), lanes 4, 8 and 12 (DnaK and p53, p53 His273, and p53 Lys285, respectively, followed by DO-1). […] PAb421-activated p53 (solid bar), DnaK-activated p53 (open bar), casein kinase II-activated p53 (stippled bar).

p53 wild type [2] = biological target: T1, p53 wild type; experiment: EMSA; DnaK-activated, 1 mM ATP; conditions: tags: bacterial expression, Fraction III; chain copies: 4 inferred; label: 32P; Hind III compatible overhangs
Experimental: as §1

T1 sequence (P04637 whole entry, one chain of several): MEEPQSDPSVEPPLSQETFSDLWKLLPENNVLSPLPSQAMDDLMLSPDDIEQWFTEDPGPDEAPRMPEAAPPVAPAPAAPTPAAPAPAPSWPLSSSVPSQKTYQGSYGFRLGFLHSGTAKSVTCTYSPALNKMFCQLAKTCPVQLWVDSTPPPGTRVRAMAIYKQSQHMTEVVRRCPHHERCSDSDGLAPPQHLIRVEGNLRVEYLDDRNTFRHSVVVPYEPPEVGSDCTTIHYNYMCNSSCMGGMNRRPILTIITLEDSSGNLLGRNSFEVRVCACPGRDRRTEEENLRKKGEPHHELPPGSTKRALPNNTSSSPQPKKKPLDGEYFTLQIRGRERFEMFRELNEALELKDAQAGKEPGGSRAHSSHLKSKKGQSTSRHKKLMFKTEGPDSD

B1: PG p53 consensus site (dsDNA)
DNA 1: AGCTTAGACATGCCTAGACATGCCTA
DNA 2: AGCTTAGGCATGTCTAGGCATGTCTA
p53 wild type [1]
  activity: 64 fmol DNA bound/ug protein
p53 wild type [2]
  activity: 57 fmol DNA bound/ug protein
